Experimental data taken from paper PMC3765742 (2013).

Biological target: M6P/IGF-IIR (Homo sapiens, UniProt P11717)
Assay: SPR

M6P/IGF-IIR, sequence (P11717 41-2491): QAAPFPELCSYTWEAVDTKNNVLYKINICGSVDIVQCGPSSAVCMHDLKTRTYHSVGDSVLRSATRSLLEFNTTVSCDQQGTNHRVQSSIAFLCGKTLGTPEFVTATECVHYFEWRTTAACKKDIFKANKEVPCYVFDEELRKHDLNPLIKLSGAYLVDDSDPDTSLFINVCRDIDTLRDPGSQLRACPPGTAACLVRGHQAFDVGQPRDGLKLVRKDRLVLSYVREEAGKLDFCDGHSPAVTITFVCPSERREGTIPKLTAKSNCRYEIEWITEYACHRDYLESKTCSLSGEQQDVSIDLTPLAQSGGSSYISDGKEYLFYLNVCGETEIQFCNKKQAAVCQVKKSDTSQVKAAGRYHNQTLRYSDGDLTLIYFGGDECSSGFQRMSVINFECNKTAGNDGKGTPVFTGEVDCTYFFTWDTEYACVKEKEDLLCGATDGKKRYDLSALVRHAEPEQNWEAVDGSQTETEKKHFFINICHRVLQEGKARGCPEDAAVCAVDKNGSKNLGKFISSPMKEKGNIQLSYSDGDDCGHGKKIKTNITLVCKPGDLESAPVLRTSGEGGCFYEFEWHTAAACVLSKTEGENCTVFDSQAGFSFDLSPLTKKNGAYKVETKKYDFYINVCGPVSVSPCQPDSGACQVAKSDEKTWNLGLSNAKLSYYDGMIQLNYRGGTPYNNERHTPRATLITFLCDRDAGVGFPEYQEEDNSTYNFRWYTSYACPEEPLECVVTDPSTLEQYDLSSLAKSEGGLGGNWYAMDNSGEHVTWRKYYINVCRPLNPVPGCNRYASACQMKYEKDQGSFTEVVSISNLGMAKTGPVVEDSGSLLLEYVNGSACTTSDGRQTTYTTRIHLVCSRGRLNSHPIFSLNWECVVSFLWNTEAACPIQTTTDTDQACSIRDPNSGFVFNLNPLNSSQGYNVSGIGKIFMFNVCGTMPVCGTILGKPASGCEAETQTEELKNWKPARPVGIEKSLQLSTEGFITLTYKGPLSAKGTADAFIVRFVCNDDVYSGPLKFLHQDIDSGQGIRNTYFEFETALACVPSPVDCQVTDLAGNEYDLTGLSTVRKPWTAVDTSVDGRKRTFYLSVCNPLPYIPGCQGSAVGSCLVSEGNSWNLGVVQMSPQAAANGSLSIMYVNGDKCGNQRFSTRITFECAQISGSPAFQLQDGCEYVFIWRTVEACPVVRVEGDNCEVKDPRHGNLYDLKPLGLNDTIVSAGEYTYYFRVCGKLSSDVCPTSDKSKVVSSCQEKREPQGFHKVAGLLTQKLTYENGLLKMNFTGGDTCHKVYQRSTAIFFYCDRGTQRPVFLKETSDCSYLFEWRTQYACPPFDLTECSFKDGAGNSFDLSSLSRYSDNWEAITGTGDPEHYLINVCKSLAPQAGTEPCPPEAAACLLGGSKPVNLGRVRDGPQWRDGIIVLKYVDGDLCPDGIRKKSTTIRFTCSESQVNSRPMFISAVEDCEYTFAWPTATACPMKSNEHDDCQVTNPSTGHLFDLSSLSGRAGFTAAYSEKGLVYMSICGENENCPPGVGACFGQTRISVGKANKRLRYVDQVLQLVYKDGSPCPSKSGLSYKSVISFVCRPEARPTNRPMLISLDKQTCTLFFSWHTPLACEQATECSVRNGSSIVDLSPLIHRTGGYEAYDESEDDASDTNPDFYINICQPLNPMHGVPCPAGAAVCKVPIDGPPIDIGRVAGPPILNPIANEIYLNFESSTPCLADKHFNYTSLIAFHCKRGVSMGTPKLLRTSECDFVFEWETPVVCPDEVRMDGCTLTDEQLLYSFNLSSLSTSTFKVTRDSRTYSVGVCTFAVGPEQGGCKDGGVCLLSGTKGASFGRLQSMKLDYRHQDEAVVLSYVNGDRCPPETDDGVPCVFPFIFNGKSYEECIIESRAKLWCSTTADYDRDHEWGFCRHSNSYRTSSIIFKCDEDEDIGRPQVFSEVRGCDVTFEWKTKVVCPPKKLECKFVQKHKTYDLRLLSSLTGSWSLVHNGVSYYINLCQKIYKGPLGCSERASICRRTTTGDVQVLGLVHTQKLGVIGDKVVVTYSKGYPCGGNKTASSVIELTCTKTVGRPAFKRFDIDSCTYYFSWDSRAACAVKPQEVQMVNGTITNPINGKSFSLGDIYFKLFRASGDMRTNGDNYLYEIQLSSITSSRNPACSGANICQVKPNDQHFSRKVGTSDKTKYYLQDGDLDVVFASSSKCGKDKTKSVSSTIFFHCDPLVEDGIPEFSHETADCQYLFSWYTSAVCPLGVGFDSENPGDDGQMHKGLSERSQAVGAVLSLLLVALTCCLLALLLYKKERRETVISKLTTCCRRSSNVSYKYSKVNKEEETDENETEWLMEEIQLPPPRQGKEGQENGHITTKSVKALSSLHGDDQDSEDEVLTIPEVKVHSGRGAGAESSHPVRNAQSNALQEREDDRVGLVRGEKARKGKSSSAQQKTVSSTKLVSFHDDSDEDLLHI

Kd: 35.9 µM
B1: DPP-4 (protein)
chain: SRKTYTLTDYLKNTYRLKLYSLRWISDHEYLYKQENNILVFNAEYGNSSVFLENSTFDEFGHSINDYSISPDGQFILLEYNYVKQWRHSYTASYDIYDLNKRQLITEERIPNNTQWVTWSPVGHKLAYVWNNDIYVKIEPNLPSYRITWTGKEDIIYNGITDWVYEEEVFSAYSALWWSPNGTFLAYAQFNDTEVPLIEYSFYSDESLQYPKTVRVPYPKAGAVNPTVKFFVVNTDSLSSVTNATSIQITAPASMLIGDHYLCDVTWATQERISLQWLRRIQNYSVMDICDYDESSGRWNCLVARQHIEMSTTGWVGRFRPSEPHFTLDGNSFYKIISNEEGYRHICYFQIDKKDCTFITKGTWEVIGIEALTSDYLYYISNEYKGMPGGRNLYKIQLSDYTKVTCLSCELNPERCQYYSVSFSKEAKYYQLRCSGPGLPLYTLHSSVNDKGLRVLEDNSALDKMLQNVQMPSKKLDFIILNETKFWYQMILPPHFDKSKKYPLLLDVYAGPCSQKADTVFRLNWATYLASTENIIVASFDGRGSGYQGDKIMHAINRRLGTFEVEDQIEAARQFSKMGFVDNKRIAIWGWSYGGYVTSMVLGSGSGVFKCGIAVAPVSRWEYYDSVYTERYMGLPTPEDNLDHYRNSTVMSRAENFKQVEYLLIHGTADDNVHFQQSAQISKALVDVGVDFQAMWYTDEDHGIASSTAHQHIYTHMSHFIKQCFSLP
